Laboratory results published in patent US20220064329A1 (Novo Nordisk, published 2022).

How the values were obtained:
[1] = target: T1, recombinant human activated FVII (FVIIa) (human, UniProt P08709 61-212; P08709 213-466, ten glutamate residues of the Gla domain may be gamma-carboxylated); assay: cell-based or functional assay
T1 sequence 1: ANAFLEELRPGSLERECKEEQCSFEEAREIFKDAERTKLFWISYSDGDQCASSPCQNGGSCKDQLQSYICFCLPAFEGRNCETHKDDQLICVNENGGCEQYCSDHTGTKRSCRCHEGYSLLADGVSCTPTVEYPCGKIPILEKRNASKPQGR
T1 sequence 2: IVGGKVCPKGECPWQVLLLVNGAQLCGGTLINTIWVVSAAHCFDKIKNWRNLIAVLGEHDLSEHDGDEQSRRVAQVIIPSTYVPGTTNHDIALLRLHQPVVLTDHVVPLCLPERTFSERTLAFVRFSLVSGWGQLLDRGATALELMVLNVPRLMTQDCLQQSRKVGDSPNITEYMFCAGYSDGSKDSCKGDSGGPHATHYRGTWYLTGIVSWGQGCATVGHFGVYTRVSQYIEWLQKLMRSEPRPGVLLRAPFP

[2] = target: T2, recombinant human activated Factor VII (FVIIa) (human, UniProt P08709 61-212; P08709 213-466, Gla domain: ten glutamate residues may be gamma-carboxylated); assay: cell-based or functional assay
T2 sequence 1: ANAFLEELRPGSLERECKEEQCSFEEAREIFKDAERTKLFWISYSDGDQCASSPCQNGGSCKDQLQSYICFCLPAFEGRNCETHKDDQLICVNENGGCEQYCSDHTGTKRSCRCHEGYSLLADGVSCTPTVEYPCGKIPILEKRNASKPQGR
T2 sequence 2: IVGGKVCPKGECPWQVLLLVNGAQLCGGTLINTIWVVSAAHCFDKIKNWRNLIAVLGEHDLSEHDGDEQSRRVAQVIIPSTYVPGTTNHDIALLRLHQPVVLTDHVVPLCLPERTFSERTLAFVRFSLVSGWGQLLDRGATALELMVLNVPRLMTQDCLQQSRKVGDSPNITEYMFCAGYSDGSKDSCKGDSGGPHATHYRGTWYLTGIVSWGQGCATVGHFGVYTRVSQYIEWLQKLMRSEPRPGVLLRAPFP

[3] = target: T2, recombinant human activated Factor VII …; assay: SPR (Biacore T200), antibody captured on anti-murine IgG, FVIIa injected at 5-135 nM, 1:1 model
Description: Anti-murine IgG (by GE Healthcare) was immobilised on a CM4 sensor chip using standard amine coupling chemistry kit (both supplied by GE Healthcare). […] The running buffer was prepared by diluting 10-fold the 10×HBS-P buffer (supplied by GE Healthcare) and supplemented with 1 mg/ml BSA and 5 mM CaCl₂) to give 10 mM HEPES, 150 mM NaCl, 0.05% v/v Polysorbate 20(P20), pH 7.4, 5 mM CaCl₂), 1 mg/ml bovine serum albumin (BSA). […] Regeneration of the chip was achieved using regeneration buffer consisting of 10 mM Gly-HCl pH 1.7 (supplied by GE Healthcare). Binding data were analysed according to a 1:1 model using BiaEvaluation 4.1 supplied by the manufacturer (Biacore AB, Uppsala, Sweden).

| Stimulation (fold): FXa generated by FVIIa with lipidated TLT-1 and 100 nM biAb, relative to free FVIIa [1] [fold] | AT inhibition (kinh %) [2] [%] | TGT activity (% FVIIa) [2] [% FVIIa] | Kd [3] [nM] | Binder |
| --- | --- | --- | --- | --- |
| 2.7 | – | – | – | biAb0244 (bispecific antibody, human IgG4 S228P, kappa) heavy 1: QVQLKESGPGLVAPSQSLSITCTVSGFSLTDYGVSWIRQPPGKGLEWLGVIWGGGNTYNNSALKSRLSISKDNSKSQVFLKMNSLQADDTAMYFCAKHGYYGYVMDYWGQGTSVTVSSASTKGPSVFPLAPCSRSTSESTAALGCLVKDYFPEPVTVSWNSGALTSGVHTFPAVLQSSGLYSLSSVVTVPSSSLGTKTYTCNVDHKPSNTKVDKRVESKYGPPCPPCPAPEFLGGPSVFLFPPKPKDTLMISRTPEVTCVVVDVSQEDPEVQFNWYVDGVEVHNAKTKPREEQFNSTYRVVSVLTVLHQDWLNGKEYKCKVSNKGLPSSIEKTISKAKGQPREPQVYTLPPSQEEMTKNQVSLTCLVKGFYPSDIAVEWESNGQPENNYKTTPPVLDSDGSFLLYSKLTVDKSRWQEGNVFSCSVMHEALHNHYTQKSLSLSLGK light 1: DIVMTQSHKIMSTLVGDRVSITCKASQDVDPAVAWYQQKPGQYPKLLIYWASTRHTGVPDRFTGSGSGTDFTLTISNVQSEDLADYFCQQYSKYPYTFGGGTKLEIKRTVAAPSVFIFPPSDEQLKSGTASVVCLLNNFYPREAKVQWKVDNALQSGNSQESVTEQDSKDSTYSLSSTLTLSKADYEKHKVYACEVTHQGLSSPVTKSFNRGEC heavy 2: not shown light 2: DIVMTQTPLSSPVTLGQPASISCRSSQSLVHRQGNTYFHWLQQRPGQPPRLLIYKVSNRFSGVPDRFSGSGAGTDFTLKISRVEAEDVGVYYCSQSTHVPYTFGQGTKLEIKRTVAAPSVFIFPPSDEQLKSGTASVVCLLNNFYPREAKVQWKVDNALQSGNSQESVTEQDSKDSTYSLSSTLTLSKADYEKHKVYACEVTHQGLSSPVTKSFNRGEC |
| – | 133 | 115 | 0.14 | mAb0005 (antibody, V domains shown, fully murine, hybridoma-derived; also called 11F2; mAb005) VH: DVQLQESGPGLVEPSQSLSLTCTVTGYSITSDCAWSWIRQFPGNKLEWMGYINYSGSTNYNPSLKSRISVTRDTSKNQFFLRLSSVTAEDTATYYCTRSVNYYGNSFAVGYWGQGTSVTVSS VL: DIVMTQSPATLSVTAGDRVSLSCRASQGISDYLHWYQQKSHESPRLLIKYTSQPVSGIPSRFSGSGSGSEFTLSINSVEPEDVGVYYCQNGHSFPLTFGAGTKLELK |
| – | 111 | 103 | 0.27 | mAb0544 (antibody, V domains shown, fully murine, hybridoma-derived; also called 11F9) VH: DVQLQESGPGLVKPSQSLSLTCTVTGYSITSDCAWNWIRQFPGNKLEWMGYINYSGSTNYNPSLKSRISITRDTSQNHFFLQLSSVTAEDTATYYCTRSVNYYGNSFAVGYWGQGISVTVSS VL: DIVMSQSPATLSVTPGDRVSLSCRTSQDIGDYLHWYRQKSHESPRLLIKYTSQSVSGIPSRFSGSGSGSDFTLSINTVEPEDVGLYYCQNGHSFPLTFGTGTRLELK |
| – | 118 | 104 | 0.76 | mAb0552 (antibody, V domains shown, fully murine, hybridoma-derived; also called 11F18) VH: DVQLQESGPGLVKPSQSLSLTCTVTGYSITSDCAWNWIRQFPGNKLEWMGYINYSGSTNYNPSLKSRISITRDTSKNHFFLQLNSVTAEDTATYYCARSVDYFGNSFAVGYWGQGTSVAVSS VL: DIVMTQSPATLSVTPGDRVSLSCRASQSISDYLHWYQQKSHESPRLLIKYSSQSISGIPSRFSGSGSGSDFTLSINSVEPEDVGVYYCQNGHSFPLTFGAGTKLELK |
| 35.3 | – | – | – | biAb0241 (bispecific antibody, human IgG4 S228P, kappa) heavy 1: QVQLQESGPGLVKPSQTLSLTCTVSGYSISSDSAWSWIRQPPGKGLEWIGYIQYSGSTNYNPSLKSRVTISRDTSKNQFSLKLSSVTAADTAVYYCARSVNYYGNSFAVGYWGQGTLVTVSSASTKGPSVFPLAPCSRSTSESTAALGCLVKDYFPEPVTVSWNSGALTSGVHTFPAVLQSSGLYSLSSVVTVPSSSLGTKTYTCNVDHKPSNTKVDKRVESKYGPPCPPCPAPEFLGGPSVFLFPPKPKDTLMISRTPEVTCVVVDVSQEDPEVQFNWYVDGVEVHNAKTKPREEQFNSTYRVVSVLTVLHQDWLNGKEYKCKVSNKGLPSSIEKTISKAKGQPREPQVYTLPPSQEEMTKNQVSLTCLVKGFYPSDIAVEWESNGQPENNYKTTPPVLDSDGSFLLYSKLTVDKSRWQEGNVFSCSVMHEALHNHYTQKSLSLSLGK light 1: EIVLTQSPATLSLSPGERATLSCRASQGISDYLHWYQQKPGEAPRLLIKYTSQPATGIPARFSGSGSGTDFTLTISSLEPEDFAVYYCQNGHSFPLTFGQGTKLEIKRTVAAPSVFIFPPSDEQLKSGTASVVCLLNNFYPREAKVQWKVDNALQSGNSQESVTEQDSKDSTYSLSSTLTLSKADYEKHKVYACEVTHQGLSSPVTKSFNRGEC heavy 2: not shown light 2: DIVVSQSPSSLAVSAGEKVTMSCKSSQSLLNSRTRKNYLAWYQQKPGQSPKLLIYWASTRESGVPDRFTGSGSGTDFTLTISSVQAEDLAVYYCKQSYNLLTFGAGTKLELKRTVAAPSVFIFPPSDEQLKSGTASVVCLLNNFYPREAKVQWKVDNALQSGNSQESVTEQDSKDSTYSLSSTLTLSKADYEKHKVYACEVTHQGLSSPVTKSFNRGEC |
| 21.8 | – | – | – | biAb0242 (bispecific antibody, human IgG4 S228P, kappa) heavy 1: QVQLQESGPGLVKPSQTLSLTCTVSGYSISSDSAWSWIRQPPGKGLEWIGYIQYSGSTNYNPSLKSRVTISRDTSKNQFSLKLSSVTAADTAVYYCARSVNYYGNSFAVGYWGQGTLVTVSSASTKGPSVFPLAPCSRSTSESTAALGCLVKDYFPEPVTVSWNSGALTSGVHTFPAVLQSSGLYSLSSVVTVPSSSLGTKTYTCNVDHKPSNTKVDKRVESKYGPPCPPCPAPEFLGGPSVFLFPPKPKDTLMISRTPEVTCVVVDVSQEDPEVQFNWYVDGVEVHNAKTKPREEQFNSTYRVVSVLTVLHQDWLNGKEYKCKVSNKGLPSSIEKTISKAKGQPREPQVYTLPPSQEEMTKNQVSLTCLVKGFYPSDIAVEWESNGQPENNYKTTPPVLDSDGSFLLYSKLTVDKSRWQEGNVFSCSVMHEALHNHYTQKSLSLSLGK light 1: EIVLTQSPATLSLSPGERATLSCRASQGISDYLHWYQQKPGEAPRLLIKYTSQPATGIPARFSGSGSGTDFTLTISSLEPEDFAVYYCQNGHSFPLTFGQGTKLEIKRTVAAPSVFIFPPSDEQLKSGTASVVCLLNNFYPREAKVQWKVDNALQSGNSQESVTEQDSKDSTYSLSSTLTLSKADYEKHKVYACEVTHQGLSSPVTKSFNRGEC heavy 2: not shown light 2: SIVMTQTPKFLLVSAGDRVTITCKASQSVSNDVAWYQQKPGQSPKLLINYASSRYTGIPDRFTGSGYGTDFTFTISTVQAEDLAVYFCQQDYSSPYTFGGGTKLEIERTVAAPSVFIFPPSDEQLKSGTASVVCLLNNFYPREAKVQWKVDNALQSGNSQESVTEQDSKDSTYSLSSTLTLSKADYEKHKVYACEVTHQGLSSPVTKSFNRGEC |
| 25.5 | – | – | – | biAb0243 (bispecific antibody, human IgG4 S228P, kappa) heavy 1: QVQLQESGPGLVKPSQTLSLTCTVSGYSISSDSAWSWIRQPPGKGLEWIGYIQYSGSTNYNPSLKSRVTISRDTSKNQFSLKLSSVTAADTAVYYCARSVNYYGNSFAVGYWGQGTLVTVSSASTKGPSVFPLAPCSRSTSESTAALGCLVKDYFPEPVTVSWNSGALTSGVHTFPAVLQSSGLYSLSSVVTVPSSSLGTKTYTCNVDHKPSNTKVDKRVESKYGPPCPPCPAPEFLGGPSVFLFPPKPKDTLMISRTPEVTCVVVDVSQEDPEVQFNWYVDGVEVHNAKTKPREEQFNSTYRVVSVLTVLHQDWLNGKEYKCKVSNKGLPSSIEKTISKAKGQPREPQVYTLPPSQEEMTKNQVSLTCLVKGFYPSDIAVEWESNGQPENNYKTTPPVLDSDGSFLLYSKLTVDKSRWQEGNVFSCSVMHEALHNHYTQKSLSLSLGK light 1: EIVLTQSPATLSLSPGERATLSCRASQGISDYLHWYQQKPGEAPRLLIKYTSQPATGIPARFSGSGSGTDFTLTISSLEPEDFAVYYCQNGHSFPLTFGQGTKLEIKRTVAAPSVFIFPPSDEQLKSGTASVVCLLNNFYPREAKVQWKVDNALQSGNSQESVTEQDSKDSTYSLSSTLTLSKADYEKHKVYACEVTHQGLSSPVTKSFNRGEC heavy 2: not shown light 2: DIQMTQTTSSLSASLGDRVTISCRASQDISNYLNWYQQKPDGTVKLLIFYTSRLHSGVPSRFSGSGSGTDYSLTISNLEPEDIATYYCQQDTKLPYTFGGGTKLEMKRTVAAPSVFIFPPSDEQLKSGTASVVCLLNNFYPREAKVQWKVDNALQSGNSQESVTEQDSKDSTYSLSSTLTLSKADYEKHKVYACEVTHQGLSSPVTKSFNRGEC |
